Blank lines part the entries; values can stand above or below the binder they belong to.
Key:
[1] = molecular target: T1, neuronal nitric oxide synthase (nNOS) (rat, UniProt P29476 1-1429, limits assumed); test: GST fusion protein binding assay with rat hippocampus membrane proteins, immunoblot
T1 construct: Endogenous rat protein
Description: We utilized the yeast two-hybrid system to investigate the effects of halothane on protein interactions within the NMDA receptor signaling complex. The PDZ domain of nNOS or the C-terminus of NMDA receptor subunit 2B (NR2B) was fused in frame with the GAL4 DNA-binding domain in a yeast vector, pGBT9. […] Both yeast vectors were co-transformed into the Y190 yeast strain, which was then grown in the absence or presence of halothane at clinically relevant concentrations. Protein-protein interactions were confirmed by both yeast growth on -Leu/-Trp/-His (-LTH) medium and lacz expression. To confirm the yeast two-hybrid results, the GST fusion protein binding assay was performed. […] After extensive washing, the bound proteins were eluted by boiling in 1 X SDS-PAGE sample buffer and detected by immunoblotting.

[2] = molecular target: T2, postsynaptic density-95 (PSD-95)/synapse-associated protein-90 (SAP90) (rat, UniProt P31016 1-724); test: co-immunoprecipitation from rat spinal cord PSD fraction, immunoblot
T2 construct: Endogenous protein from rat spinal cord PSD fraction, pulled down by co-immunoprecipitation; also called PSD-95/SAP90
T2 sequence (P31016 whole entry): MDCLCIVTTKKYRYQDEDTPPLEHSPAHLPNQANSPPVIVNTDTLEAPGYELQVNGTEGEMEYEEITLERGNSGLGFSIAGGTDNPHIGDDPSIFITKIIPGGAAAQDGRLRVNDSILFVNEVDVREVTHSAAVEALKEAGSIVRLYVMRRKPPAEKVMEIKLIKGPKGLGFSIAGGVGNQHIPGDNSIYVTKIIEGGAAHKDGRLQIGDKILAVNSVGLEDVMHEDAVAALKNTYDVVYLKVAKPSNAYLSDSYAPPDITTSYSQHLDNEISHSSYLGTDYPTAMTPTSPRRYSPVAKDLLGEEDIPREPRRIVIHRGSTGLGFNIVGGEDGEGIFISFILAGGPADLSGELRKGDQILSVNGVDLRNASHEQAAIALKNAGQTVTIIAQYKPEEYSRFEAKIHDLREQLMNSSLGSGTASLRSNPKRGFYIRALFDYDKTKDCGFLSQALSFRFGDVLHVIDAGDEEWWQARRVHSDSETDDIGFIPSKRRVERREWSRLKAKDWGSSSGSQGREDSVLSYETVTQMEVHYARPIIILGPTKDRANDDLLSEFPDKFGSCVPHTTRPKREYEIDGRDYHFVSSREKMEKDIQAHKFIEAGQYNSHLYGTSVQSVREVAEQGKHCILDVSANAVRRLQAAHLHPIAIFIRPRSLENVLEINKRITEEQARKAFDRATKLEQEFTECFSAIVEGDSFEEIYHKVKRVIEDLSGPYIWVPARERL

T1 sequence (P29476 whole entry, the tested form may be a part): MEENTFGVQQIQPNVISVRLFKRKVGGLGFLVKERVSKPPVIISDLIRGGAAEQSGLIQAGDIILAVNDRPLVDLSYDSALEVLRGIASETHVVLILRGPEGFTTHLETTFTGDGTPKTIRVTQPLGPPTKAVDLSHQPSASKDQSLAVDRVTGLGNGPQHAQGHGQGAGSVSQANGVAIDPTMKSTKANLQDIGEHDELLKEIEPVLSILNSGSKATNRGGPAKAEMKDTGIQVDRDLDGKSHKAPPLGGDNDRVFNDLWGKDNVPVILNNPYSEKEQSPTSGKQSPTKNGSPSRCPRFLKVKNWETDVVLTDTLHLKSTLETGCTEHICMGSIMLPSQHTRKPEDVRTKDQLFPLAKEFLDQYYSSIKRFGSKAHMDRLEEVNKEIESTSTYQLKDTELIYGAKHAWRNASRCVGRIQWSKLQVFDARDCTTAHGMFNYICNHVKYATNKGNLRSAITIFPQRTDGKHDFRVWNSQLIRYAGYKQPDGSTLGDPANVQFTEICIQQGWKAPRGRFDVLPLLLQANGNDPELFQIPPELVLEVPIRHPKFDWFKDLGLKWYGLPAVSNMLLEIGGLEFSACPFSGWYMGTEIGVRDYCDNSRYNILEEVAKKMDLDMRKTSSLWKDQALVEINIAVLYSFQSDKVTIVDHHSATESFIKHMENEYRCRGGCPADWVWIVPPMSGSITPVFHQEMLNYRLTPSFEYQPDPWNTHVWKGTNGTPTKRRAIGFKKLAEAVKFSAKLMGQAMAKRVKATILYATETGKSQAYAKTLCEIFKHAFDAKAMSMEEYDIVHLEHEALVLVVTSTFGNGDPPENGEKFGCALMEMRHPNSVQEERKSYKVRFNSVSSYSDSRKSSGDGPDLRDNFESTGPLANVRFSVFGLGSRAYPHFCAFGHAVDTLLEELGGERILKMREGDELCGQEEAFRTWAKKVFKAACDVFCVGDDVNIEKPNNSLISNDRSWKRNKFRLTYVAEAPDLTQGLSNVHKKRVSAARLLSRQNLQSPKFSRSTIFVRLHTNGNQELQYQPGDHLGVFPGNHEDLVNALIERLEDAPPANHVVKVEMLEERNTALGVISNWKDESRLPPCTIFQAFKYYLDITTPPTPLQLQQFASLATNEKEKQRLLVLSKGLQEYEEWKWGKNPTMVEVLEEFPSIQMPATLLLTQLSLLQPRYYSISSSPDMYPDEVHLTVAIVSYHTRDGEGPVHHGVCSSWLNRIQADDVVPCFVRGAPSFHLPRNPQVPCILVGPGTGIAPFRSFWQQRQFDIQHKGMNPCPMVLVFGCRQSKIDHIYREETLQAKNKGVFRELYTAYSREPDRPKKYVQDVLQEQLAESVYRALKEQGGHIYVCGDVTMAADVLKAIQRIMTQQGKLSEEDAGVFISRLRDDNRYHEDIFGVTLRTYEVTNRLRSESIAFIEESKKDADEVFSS

binding result [1]: binds
B1: GST-fusion protein consisting of the second PDZ domain of PSD-93 (other, UniProt Q63622 193-279, looked up)
chain: EIKLFKGPKGLGFSIAGGVGNQHIPGDNSIYVTKIIDGGAAQKDGRLQVGDRLLMVNNYSLEEVTHEEAVAILKNTSDVVYLKVGKP
notes: domain: second PDZ domain; Expressed in bacterial BL21 cells, purified on glutathione-coupled agarose; also called GST-PSD-93; GST-fusion PSD-93; not shown: glutathione S-transferase (GST) tag

binding result [2]: no binding
B2: endothelial NOS (eNOS) (enzyme, rat, UniProt Q62600 2-1202, looked up)
chain: GNLKSVGQEPGPPCGLGLGLGLGLCGKQGPASPAPEPSQAPVPPSPTRPAPDHSPPLTRPPDGPKFPRVKNWEVGSITYDTLSAQAQQDGPCTPRRCLGSLVFPRKLQSRPTQGPSPTEQLLGQARDFINQYYNSIKRSGSQAHEQRLQEVEAEVVATGTYQLRESELVFGAKQAWRNAPRCVGRIQWGKLQVFDARDCRTAQEMFTYICNHIKYATNRGNLRSAITVFPQRYAGRGDFRIWNSQLVRYAGYRQQDGSVRGDPANVEITELCIQHGWTPGNGRFDVLPLLLQAPDEPPELFTLPPELVLEVPLEHPTLEWFAALGLRWYALPAVSNMLLEIGGLEFPAAPFSGWYMSSEIGMRDLCDPHRYNILEDVAVCMDLDTRTTSSLWKDKAAVEINVAVLYSYQLAKVTIVDHHAATASFMKHLENEQKARGGCPADWAWIVPPISGSLTPVFHQEMVNYFLSPAFRYQPDPWKGSAAKGTGITRKKTFKEVANAVKISASLMGTVMAKRVKATILYGSETGRAQSYAQQLGRLFRKAFDPRVLCMDEYDVVSLEHEALVLVVTSTFGNGDPPENGESFAAALMEMSGPYNSSPRPEQHKSYKIRFNSVSCSDPLVSSWRRKRKESSNTDSAGALGTLRFCVFGLGSRAYPHFCAFARAVDTRLEELGGERLLQLGQGDELCGQEEAFRGWAQAAFQAACETFCVGEDAKAAARDIFSPKRSWKRQRYRLSTQAESLQLLPRLTHVHRRKMFQATILSVENLQSSKSTRATILVRLDTGSQEGLQYQPGDHIGVCPPNRPGLVEALLSRVEDPPPSTEPVAVEQLEKGSPGGPPPGWVRDPRLPPCTLRQALTYFLDITSPPSPRLLRLLSTLAEESSEQQELEALSQDPRRYEEWKWFRCPTLLEVLEQFPSVALPAPLILTQLPLLQPRYYSVSSAPSAHPGEIHLTVAVLAYRTQDGLGPLHYGVCSTWMSQLKAGDPVPCFIRGAPSFRLPPDPNLPCILVGPGTGIAPFRGFWQDRLHDIEIKGLQPAPMTLVFGCRCSQLDHLYRDEVLDAQQRGVFGQVLTAFSRDPGSPKTYVQDLLRTELAAEVHRVLCLEQGHMFVCGDVTMATSVLQTVQRILATEGSMELDEAGDVIGVLRDQQRYHEDIFGLTLRTQEVTSRIRTQSFSLQERQLRGAVPWSFDPPTQETPGS
notes: Endogenous rat protein

B3: GST-fusion protein consisting of the second PDZ domain of PSD-95 (other, UniProt P31016 160-246, looked up)
chain: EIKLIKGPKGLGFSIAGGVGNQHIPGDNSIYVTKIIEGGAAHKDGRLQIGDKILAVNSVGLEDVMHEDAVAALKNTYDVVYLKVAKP
notes: domain: second PDZ domain; Expressed in bacterial BL21 cells, purified on glutathione-coupled agarose; also called GST-PSD-95; GST-fusion PSD-95; not shown: glutathione S-transferase (GST) tag
binding result [1]: binds
